In the experiment the target is human PD-L1 (PD-L1 aAPC/CHO-K1 cells) (human, UniProt Q9NZQ7 19-290). Description: cell-based or functional assay.

Where a chain is given by its changes, count along the chain named.

The text below walks through data of patent US20220220204A1 (NANJING GENSCRIPT BIOTECH, published 2022).

human PD-L1 (PD-L1 aAPC/CHO-K1 cells), sequence (Q9NZQ7 19-290): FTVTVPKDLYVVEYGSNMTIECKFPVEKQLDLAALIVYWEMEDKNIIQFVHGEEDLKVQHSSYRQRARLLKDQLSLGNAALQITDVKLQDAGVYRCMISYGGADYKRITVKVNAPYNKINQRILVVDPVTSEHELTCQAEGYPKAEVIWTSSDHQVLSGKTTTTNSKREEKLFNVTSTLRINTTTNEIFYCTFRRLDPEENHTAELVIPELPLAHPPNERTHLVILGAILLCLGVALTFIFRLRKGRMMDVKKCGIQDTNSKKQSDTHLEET

B1: PDL1HCv1 (antibody, human IgG1, kappa, N297A, V domains shown)
VH: EVQLVQSGAEVKKPGASVKVSCKASGYIFTGYGITWVRQAPGQGLEWMGEIFPRRVQTYYSEKFKGRVTMTTDTSTSTAYMELRSLRSDDTAVYYCARDYDPYFALDYWGQGTTVTVSS
VL: DIQMTQSPSSLSASVGDRVTITCRASQDVSTAVDWYQQKPGKAPKLLIYSASYRYTGVPDRFSGSGSGTDFTFTISSLQPEDIATYYCQQHYSIPFTFGQGTKLEIKR
In the case of B1, the “Bottom (PD-1/PD-L1 blockade bioassay)” value was 28900, the “Log EC50 (PD-1/PD-L1 blockade bioassay)” value is -0.323 and the “Top (PD-1/PD-L1 blockade bioassay)” value amounted to 113000.

B2: PDL1HCv5 (antibody, human IgG1, kappa, N297A, V domains shown)
VH: B1 VH with T72A
VL: B1 VL
Consider B2, for which the “Bottom (PD-1/PD-L1 blockade bioassay)” value was 27800, the “Log EC50 (PD-1/PD-L1 blockade bioassay)” value is -0.111 and the “Top (PD-1/PD-L1 blockade bioassay)” value is 110000.
